In test [1] the target is T1, human IL-17 receptor subunit E (human, UniProt Q8NFR9 24-454, limits assumed).
T1 construct: also called hIL17RE
T1 sequence (looked up): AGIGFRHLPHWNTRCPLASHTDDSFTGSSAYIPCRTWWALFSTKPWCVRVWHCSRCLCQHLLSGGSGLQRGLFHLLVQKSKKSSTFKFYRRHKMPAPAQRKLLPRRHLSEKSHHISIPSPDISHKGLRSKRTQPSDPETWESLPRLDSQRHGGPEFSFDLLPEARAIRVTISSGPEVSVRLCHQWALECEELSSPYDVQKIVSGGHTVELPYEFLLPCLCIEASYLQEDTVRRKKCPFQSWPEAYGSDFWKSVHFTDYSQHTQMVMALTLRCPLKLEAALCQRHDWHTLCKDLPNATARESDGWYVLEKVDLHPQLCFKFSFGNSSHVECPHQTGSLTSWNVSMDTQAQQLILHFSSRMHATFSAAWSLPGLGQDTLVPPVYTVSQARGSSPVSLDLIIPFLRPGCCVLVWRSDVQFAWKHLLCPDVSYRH
The test is described as follows: ELISA, coated receptor; SM17 at 0.4 µg/mL; well 1. On the technique in general: In an ELISA, binding on a coated surface is turned into a signal by an enzyme label.

Test [2] concerns the target T2, human IL-17RB protein (recombinant, R&D systems) (human).
T2 construct: Bought protein; also called hIL17RB
T2 sequence (Q9NRM6 whole entry, looked up): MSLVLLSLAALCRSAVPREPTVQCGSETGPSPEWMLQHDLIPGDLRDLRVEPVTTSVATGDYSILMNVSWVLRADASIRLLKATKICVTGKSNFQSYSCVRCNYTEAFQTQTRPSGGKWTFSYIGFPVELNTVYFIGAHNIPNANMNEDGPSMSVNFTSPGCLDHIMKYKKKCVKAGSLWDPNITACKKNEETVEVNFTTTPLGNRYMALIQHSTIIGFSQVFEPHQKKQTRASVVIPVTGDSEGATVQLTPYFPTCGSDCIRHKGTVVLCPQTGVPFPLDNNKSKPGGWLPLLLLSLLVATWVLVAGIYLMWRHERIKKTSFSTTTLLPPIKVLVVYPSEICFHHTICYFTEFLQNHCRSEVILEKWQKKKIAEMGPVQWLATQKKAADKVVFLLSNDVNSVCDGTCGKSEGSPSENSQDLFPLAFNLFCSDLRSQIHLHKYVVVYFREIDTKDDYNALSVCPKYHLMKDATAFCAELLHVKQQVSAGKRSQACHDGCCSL
The test is described as follows: ELISA, coated receptor; SM17 at 0.4 µg/mL; well 1.

In test [3] the target is T3, human IL-17 receptor subunit D (human, UniProt Q8NFM7 28-299, limits assumed).
T3 construct: also called IL17RD; hIL 17RD
T3 sequence (looked up): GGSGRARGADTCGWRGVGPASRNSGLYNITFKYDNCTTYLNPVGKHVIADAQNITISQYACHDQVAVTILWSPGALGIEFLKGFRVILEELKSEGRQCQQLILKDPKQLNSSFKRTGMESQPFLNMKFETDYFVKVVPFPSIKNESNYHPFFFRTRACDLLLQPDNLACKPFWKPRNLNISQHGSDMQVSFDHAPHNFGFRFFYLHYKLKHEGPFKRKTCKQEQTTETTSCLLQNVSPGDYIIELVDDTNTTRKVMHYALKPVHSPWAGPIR
Description: ELISA, coated receptor; SM17 at 0.4 µg/mL; well 1.

Test [4] has as its target T4, human IL-17 receptor subunit C (human, UniProt Q8NAC3-2 21-467, limits assumed).
T4 construct: also called IL17RC; hIL17RC
T4 sequence (looked up): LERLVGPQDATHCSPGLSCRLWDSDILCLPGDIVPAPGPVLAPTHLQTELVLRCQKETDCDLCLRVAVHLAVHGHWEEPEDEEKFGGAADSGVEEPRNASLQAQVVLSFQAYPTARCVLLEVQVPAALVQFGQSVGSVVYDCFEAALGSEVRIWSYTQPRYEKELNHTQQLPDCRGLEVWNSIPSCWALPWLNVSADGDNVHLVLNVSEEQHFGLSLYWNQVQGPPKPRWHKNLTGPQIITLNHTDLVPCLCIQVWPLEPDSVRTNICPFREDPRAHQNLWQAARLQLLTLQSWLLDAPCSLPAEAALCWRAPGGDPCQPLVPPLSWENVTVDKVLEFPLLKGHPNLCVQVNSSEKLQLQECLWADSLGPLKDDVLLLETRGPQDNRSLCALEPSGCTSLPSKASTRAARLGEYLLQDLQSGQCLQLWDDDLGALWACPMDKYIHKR
Description: ELISA, coated receptor; SM17 at 0.4 µg/mL; well 1.

In test [5] the target is T5, human IL-17 receptor subunit A (human, UniProt Q96F46 33-320).
T5 construct: also called IL17RA; hIL17RA
Description: ELISA, coated receptor; SM17 at 0.4 µg/mL; well 1.

The target in test [6] is T6, cynomolgus monkey IL-17RB protein (recombinant, R&D systems) (cynomolgus monkey, UniProt A0A2K5TUK1 18-289).
T6 construct: also called cynomolgus IL17RB; Cyno-IL17RB
T6 sequence: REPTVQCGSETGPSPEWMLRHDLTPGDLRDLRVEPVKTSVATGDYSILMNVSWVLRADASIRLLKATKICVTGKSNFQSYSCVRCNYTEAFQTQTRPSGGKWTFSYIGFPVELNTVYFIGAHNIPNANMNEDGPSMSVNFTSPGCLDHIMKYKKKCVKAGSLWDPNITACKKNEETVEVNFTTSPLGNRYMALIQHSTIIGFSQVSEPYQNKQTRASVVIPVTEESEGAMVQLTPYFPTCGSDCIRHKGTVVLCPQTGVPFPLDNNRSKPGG
The test is described as follows: BLI (Octet RED96), SM17 captured via anti-human Fab CH1, IL17RB in solution; trial 2. A general note: BLI is a label-free optical method that tracks binding on a fibre tip over time.
Description: Irrelevant antibody (SM03, anti-human CD22 chimeric IgG1 antibody, SinoMab BioScience Limited) was used as the control reference.

Test [7] addresses T7, human IL-33 (R&D systems) (human, UniProt O95760 112-270).
T7 sequence (looked up): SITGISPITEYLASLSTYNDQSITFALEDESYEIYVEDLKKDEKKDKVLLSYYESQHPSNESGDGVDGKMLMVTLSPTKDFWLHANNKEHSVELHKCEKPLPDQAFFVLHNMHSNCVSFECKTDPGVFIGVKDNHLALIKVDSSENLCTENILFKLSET
Description: ELISA on coated human IL-33 (2 ug/mL), goat anti-human F(ab')2-HRP [panel 'Binding affinity to human IL-33'].

The target in test [8] is T3, human IL-17 receptor subunit D. The test is described as follows: ELISA, coated receptor; SM17 at 0.016 µg/mL; well 1.
Test [9] deals with T4, human IL-17 receptor subunit C. Described as above.

B1: SM17 (antibody, human IgG4 S228P, kappa, V domains shown)
VH: QVQLVQSGAEVKKPGASVKVSCKASGYTFISYWMNWVRQAPGQGLEWMGRIDPYDSEIQYNQKFKDRVTMTRDTSISTAYMELSRLRSDDTAVYYCARSGGFDWFAYWGQGTLVTVSS
VL: DIQMTQSPSSLSASVGDRVTITCRASENINSNLAWYQQKPGKAPKLLLYDVTNLADGVPSRFSGSGSGTDYTLTISSLQPEDFATYYCQHFWGPPYTFGGGTKVEIKR
notes: other paragraphs and claim 15 call the same entries VH and VL; also called humanized anti-IL17RB monoclonal antibody
For the molecule B1, the “OD 450 nm Absorption” value came to 0.08 OD450 in [1]; 1.26 OD450 in [2]; 0.22 OD450 in test [3]; 0.25 OD450 in test [4]; 0.21 OD450 in test [5]; 0.07 OD450 in test [8]. Besides, the “OD 450 nm Absorption” value in [9] was determined as 0.09 OD450. In addition, the Kd – broadly, the constant that tells how readily two partners part at equilibrium – in [6] was found to be 5.11 nM. In addition, in [6], the koff (commonly the rate constant with which the complex falls apart) was 0.000215 s⁻¹. For the same molecule, the kon (usually the second-order rate constant of association) in test [6] is 42100 M⁻¹ s⁻¹. In addition, the binding result in [7] was “no binding”.

These data come from patent US20240409647A1 (SINOMAB BIOSCIENCE, published 2024).
